assay: soluble on expression in E. coli; label from the status in PepcDB or PDB records

Row | Sequence | soluble on expression in E. coli
1 | HHHHHHLQGAAPTATVTPSSGLSDGTVVKVAGAGLQAGTAYDVGQCAWVDTGVLACNPADFSSVTADANGSASTSLTVRRSFEGFLFDGTRWGTVDCTTAACQVGLSDAAGNGPEGVAISFN | soluble
2 | HHHHHHSSGLVPRGSHMSCEELEIVWNNIKAEARTLADCEPMLASFYHATLLKHENLGSALSYMLANKLSSPIMPAIAIREVVEEAYAADPEMIASAACDIQAVRTRDPAVDKYSTPLLYLKGFHALQAYRIGHWLWNQGRRALAIFLQNQVSVTFQVDIHPAAKIGRGIMLDHATGIVVGETAVIENDVSILQSVTLGGTGKSGGDRHPKIREGVMIGAGAKILGNIEVGRGAKIGAGSVVLQPVPPHTTAAGVPARIVGKPDSDKPSMDMDQHFNGINHTFEYGDGI | soluble
3 | HKQLNFVDLYYHPVLADMAALLSQKNVFKAIYTFVPRTDDMGDKPALFVIHSGNTGSDVYRPLFTGIKRPSFPIYVIEPHNLLNPEDQIYGIENLAKYYLQMINKFLPESSKREINLMGWSYGGVVASEMCYQLEHETSLLHVNQLTVLDSSFYLSSEDLQRVRKREANGFYAKYFTETHIFEGMDKKNVTTERLIANNHQVCEDLFNYHSKQVNVATTFVRSMVEENPLTDEQIKLLFKHVTIKNVYDGHDYLFVHESSRSLIQDVLGLAA | not soluble
4 | HMGKIYAAMMIMEYYRQSKAKK | soluble
5 | HQPVSFGLSVRKSLPKGFSVETGLTYTLLSSDIKRQGDTKMQSQKLHYIGIPVRGNWNFLEKKYFTLYVSAGGMVEKCVYGKLADDKVNVKPLQFSVAGAVGAQFNATDHVGLYVEPGVSYFFDDGSKVQTIRKERPCNFNLQAGLRFTY | not soluble
6 | HQYSDLTINPSLGPASPTSFDDLATYRFEQWVNNLDITRAFDGLFGVPLQVSAGLEHRWERFRTFSGDAQAYQVGGYRFPASLPNGQASPLAGQLASIAAQAAAVISPQDATRLQRNNYAAYVDFGITPIEPLFVDLALRAEHFDDDSGNTVSAKLNSRYEFTDTFAVRGTVGTGFRAPSLTQTGYSISDNRVGAAPDGTIVPAVTRIAPVNSALAQALGATTLDPEKSRNLGVGVTWQPAPRTSLTADAYWIEIADRIARTESLYGPALAPTLTAQGVDTSTWTSYYANAFDTRTRGLDIVLD | not soluble
7 | HSPKVSSQNRTRSFGHFPGPEFLDVEKTSFSQEQSCDSAGEGSERIHQDSESGDELSSSSTEQIRATTPPNQGRPDSPVYANLQELKISQSALPPLPGSPAIQINGEWETHKDSSGRCYYYNRGTQERTWKPPRWTRDASISKGDFQNPGDQEWLKHVDDQGRQYYYSADGSRSEWELPKYNASSQQQREIIKSRSLDRRLQEPIVLTKWRHSTIVLDTNDKESPTASKPCFPENESSPSSPKHQDTDQEKYGLLNVTKIAENGKKVRKNWLSSWAVLQGSSLLFTKTQGSSTSWFGSNQSKPEFTVDLKGATIEMASKDKSSKKNVFELKTRQGTELLIQSDNDTVINDWFKVLSSTINNQAVETDEGIEEEIPDSPGIEKHDKEKEQKDPKKLRSFKVSSIDSSEQKKTKKNLKKFLTRRPTLQAVREKGYIKDQVFGSNLANLCQRENGTVPKFVKLCIEHVEEHGLDIDGIYRVSGNLAVIQKLRFAVNHDEKLDLNDSKWEDIHVITGALKMFFRELPEPLFTFNHFNDFVNAIKQEPRQRVAAVKDLIRQLPKPNQDTMQILFRHLRRVIENGEKNRMTYQSIAIVFGPTLLKPEKETGNIAVHTVYQNQIVELILLELSSIFGR | soluble
8 | HSSGLVPRGSHMAIIFPGQGAQKVGMAQDLFNNNDQATEILTSAAKTLDFDILETMFTDEEGKLGETENTQPALLTHSSALLAALKNLNPDFTMGHSLGEYSSLVAADVLSFEDAVKIVRKRGQLMAQAFPTGVGSMAAVLGLDFDKVDEICKSLSSDDKIIEPANINCPGQIVVSGHKALIDELVEKGKSLGAKRVMPLAVSGPFHSSLMKVIEEDFSSYINQFEWRDAKFPVVQNVNAQGETDKEVIKSNMVKQLYSPVQFINSTEWLIDQGVDHFIEIGPGKVLSGLIKKINRDVKLTSIQTLEDVKGWNEND | soluble
9 | HVKVGFSPEKLRPYTTMPADFQQFWENQKAELAKFPLTYTKEHVKKYSTDQIDCYLIKLQVNQRGQSIYGYLFYPKKEGKYPVVLCPPGAGIKTIKEPLRHKYYAEQGCIRFEIEIHGLNPEMSEEEFKEISAAFNGRENGYLSNGLDSRDNYYMKRVYLACVRSIDLLTSLPEWDGKNVVVQGGSQGGALALVTAGLDQRVTACVANHPALSDMAGYKAGRAGGYPHFFRNTVDMDTPEKIRTMAYYDVVNFAQLIRADTYMTWGFNDNVCPPTTSYIVYNVLNCPKEALITPINEHWTSSDTEYGHLLWIKKHLK | not soluble

Reference: the DeepSol protein solubility set
